Reference: EP2975059A1 (Kymab Limited, dated 2016)

B1: Evolocumab (antibody, V domains shown)
VH: QVQLVQSGAEVKKPGASVKVSCKASGYTLTSYGISWVRQAPGQGLEWMGWVSFYNGNTNYAQKLQGRGTMTTDPSTSTAYMELRSLRSDDTAVYYCARGYGMDVWGQGTTVTVSS
VL: QSALTQPASVSGSPGQSITISCTGTSSDVGGYNSVSWYQQHPGKAPKLMIYEVSNRPSGVSNRFSGSKSGNTASLTISGLQAEDEADYYCNSYTSTSMVFGGGTKLTVL
B2: Antibody 316P (antibody, V domains shown)
VH: EVQLVESGGGLVQPGGSLRLSCAASGFTFNNYAMNWVRQAPGKGLDWVSTISGSGGTTNYADSVKGRFIISRDSSKHTLYLQMNSLRAEDTAVYYCAKDSNWGNFDLWGRGTLVTVSS
VL: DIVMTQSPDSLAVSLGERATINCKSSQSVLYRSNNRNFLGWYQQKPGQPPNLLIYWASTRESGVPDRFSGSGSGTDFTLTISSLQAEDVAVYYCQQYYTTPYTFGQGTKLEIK

Columns and labels:
Test in all cases: SPR ProteOn XPR36, antibody captured on anti-human IgG, PCSK9 variant as analyte, 25 C, 1:1 model
Human PCSK9 form f = Human PCSK9 form f (human, UniProt Q8NBP7 31-692)
Human PCSK9 form a = target: T1, Human PCSK9 form a (human, UniProt Q8NBP7 31-692)
T1 construct: also called PCSK9 a

Human PCSK9 form c = target: T2, Human PCSK9 form c (human, UniProt Q8NBP7 31-692)
T2 construct: also called PCSK9 c

Human PCSK9 form p = target: T3, Human PCSK9 form p (human, UniProt Q8NBP7 31-692)
T3 construct: also called PCSK9 p

Human PCSK9 form r = target: T4, Human PCSK9 form r (human, UniProt Q8NBP7 31-692)
T4 construct: also called PCSK9 r

Binder | Kd (Human PCSK9 form f) [nM] | koff (Human PCSK9 form f) [s⁻¹] | kon (Human PCSK9 form f) [M⁻¹ s⁻¹] | Kd (Human PCSK9 form a) [nM] | koff (Human PCSK9 form a) [s⁻¹] | kon (Human PCSK9 form a) [M⁻¹ s⁻¹] | Kd (Human PCSK9 form c) [nM] | koff (Human PCSK9 form c) [s⁻¹] | kon (Human PCSK9 form c) [M⁻¹ s⁻¹] | Kd (Human PCSK9 form p) [nM] | koff (Human PCSK9 form p) [s⁻¹] | kon (Human PCSK9 form p) [M⁻¹ s⁻¹] | Kd (Human PCSK9 form r) [nM] | koff (Human PCSK9 form r) [s⁻¹] | kon (Human PCSK9 form r) [M⁻¹ s⁻¹]
B1 | 0.229 | 2.66e-05 | 116000 | 0.229 | 2.62e-05 | 114000 | 0.183 | 2.2e-05 | 120000 | 0.219 | 2.5e-05 | 114000 | 0.23 | 2.67e-05 | 116000
B2 | 0.203 | 0.000282 | 1.39e+06 | 0.201 | 0.000275 | 1.37e+06 | 0.184 | 0.000275 | 1.49e+06 | 0.196 | 0.000273 | 1.39e+06 | 0.197 | 0.000276 | 1.4e+06
